{"source": "paper PMC7023979", "molecular_target": "SIVrcm integrase A119D (simian immunodeficiency virus from red-capped mangabeys (SIVrcm))", "assay": "cryo-EM structure"}
{"substance": "SIVrcm integrase A119D (enzyme)", "values": [{"measurement": "stoichiometry N", "result": 4}]}
